Test results taken from paper PMC6737914, “Dissection of GTPase-activating proteins reveals functional asymmetry in the COPI coat of budding yeast” (Journal of Cell Science, 2019).

Target: T1, TAP-purified coatomer (TAP-tagged β′-COP) (S. cerevisiae, UniProt P53622 1-1201; P41811 1-889; P40509 1-296; P41810 1-973; P32074 1-935; P43621 …)
T1 construct: α-COP subunit of coatomer, S. cerevisiae; β′-COP subunit of coatomer, S. cerevisiae, TAP-tagged; ε-COP subunit of coatomer, S. cerevisiae; β-COP subunit of coatomer, S. cerevisiae; γ-COP subunit of coatomer, S. cerevisiae; δ-COP subunit of coatomer, S. cerevisiae; ζ-COP subunit of coatomer, S. cerevisiae; The complex was released by TEV cleavage after the incubation with Glo3; also called …
Experiment: pull-down; TAP-immobilised COPI incubated with a molar excess of MBP-Glo3 (ΔAmpH) for 20 min at 4°C, washed, eluted by TEV cleavage; Coomassie staining and western blots
Conditions: both partners purified

binding result: binds
B1: MBP-Glo3 (ΔAmpH), Glo3 (1–459) lacking its distal amphipathic helix (domain or fragment)
chain: not shown
notes: Glo3, S. cerevisiae, residues 1-459, without the distal amphipathic helix (printed as 459–493); After TEV elution of the complex the eluates were incubated with amylose resin to deplete MBP; also called Glo3 lacking a C-terminal amphipathic helix; source: E. coli Rosetta (DE3) or BL21 (pREP4), purified (Ni-IDA resin), dialysed
